Source: patent publication US20250019457A1 (IBIO, published 2025)
Read-outs that look alike come from different tables or passages of the source. Blank lines part the entries; values can stand above or below the binder they belong to.

Tests used:
[1] = molecular target: T1, human TROP2 (purified recombinant antigen, Acro Biosystems Cat #TR2-H5223) (human, UniProt P09758 27-274); assay: SPR (Carterra LSA), antibody captured through human Fc, huTROP2 as analyte; KD plotted for each VH/VL combination
T1 construct: Bought recombinant protein; also called huTROP2
T1 sequence: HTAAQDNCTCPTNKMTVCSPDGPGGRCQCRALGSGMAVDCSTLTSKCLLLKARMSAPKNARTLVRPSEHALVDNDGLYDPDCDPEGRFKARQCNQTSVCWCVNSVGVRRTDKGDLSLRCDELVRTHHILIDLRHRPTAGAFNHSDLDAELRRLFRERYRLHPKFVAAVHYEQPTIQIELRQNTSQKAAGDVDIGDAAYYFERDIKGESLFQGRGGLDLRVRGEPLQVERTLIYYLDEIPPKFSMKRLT

[2] = molecular target: T1, human TROP2 (purified recombinant …); assay: SPR, Carterra LSA; antibody captured on anti-human IgG, antigen injected; 1:1 fit
[3] = molecular target: T2, human Trop2 on cells (FaDu cells, endogenous; ExpiCHO cells overexpressing human Trop2) (human, UniProt P09758 27-323); assay: flow cytometry on FaDu cells (endogenous human Trop2); average of n=1-3 experiments
T2 construct: Cell-surface form
T2 sequence: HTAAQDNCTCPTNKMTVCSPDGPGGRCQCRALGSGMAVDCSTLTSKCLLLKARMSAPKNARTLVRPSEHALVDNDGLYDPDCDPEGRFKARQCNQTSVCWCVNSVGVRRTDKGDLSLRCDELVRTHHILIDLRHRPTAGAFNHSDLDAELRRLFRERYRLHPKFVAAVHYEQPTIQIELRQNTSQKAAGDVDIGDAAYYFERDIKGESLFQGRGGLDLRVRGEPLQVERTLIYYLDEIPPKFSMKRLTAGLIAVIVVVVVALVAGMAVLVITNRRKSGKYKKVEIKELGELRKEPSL

[4] = molecular target: T3, mouse TROP2 (purified recombinant antigen, Acro Biosystems Cat #TR2-M52H6) (mouse, UniProt Q8BGV3 25-270); assay: SPR, Carterra LSA; ratio of KD values, reference huTROP2
T3 construct: Bought recombinant protein; also called msTROP2
T3 sequence: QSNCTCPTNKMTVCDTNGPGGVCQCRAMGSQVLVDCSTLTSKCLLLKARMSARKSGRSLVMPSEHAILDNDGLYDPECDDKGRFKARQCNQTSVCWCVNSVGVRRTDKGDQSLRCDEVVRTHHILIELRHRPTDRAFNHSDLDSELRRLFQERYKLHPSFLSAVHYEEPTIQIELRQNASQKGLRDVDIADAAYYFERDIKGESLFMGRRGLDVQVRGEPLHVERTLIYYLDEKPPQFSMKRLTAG

[5] = molecular target: T4, human EpCAM (purified recombinant antigen, Acro Biosystems Cat #EPM-H5223) (human, UniProt P16422 24-265); assay: SPR, Carterra LSA; antibody captured on anti-human IgG, antigen injected
T4 construct: Bought recombinant protein
T4 sequence: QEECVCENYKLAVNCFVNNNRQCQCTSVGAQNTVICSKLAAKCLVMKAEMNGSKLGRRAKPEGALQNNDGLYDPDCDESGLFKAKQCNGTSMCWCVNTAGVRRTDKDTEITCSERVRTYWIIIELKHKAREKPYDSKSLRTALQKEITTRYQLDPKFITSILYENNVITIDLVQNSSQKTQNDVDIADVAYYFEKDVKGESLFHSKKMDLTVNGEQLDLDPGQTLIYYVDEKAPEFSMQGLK

[6] = molecular target: T3, mouse TROP2 (purified recombinant …); assay: SPR, Carterra LSA; antibody captured on anti-human IgG, antigen injected; 1:1 fit
[7] = molecular target: T5, cynomolgus/rhesus TROP2 (purified recombinant antigen, Acro Biosystems Cat #TR2-R52H3) (cynomolgus/rhesus, UniProt P09758 27-274 (human entry)); assay: as above
T5 construct: Bought recombinant protein; also called cyTROP2; cyno/rhesus TROP2
T5 chain: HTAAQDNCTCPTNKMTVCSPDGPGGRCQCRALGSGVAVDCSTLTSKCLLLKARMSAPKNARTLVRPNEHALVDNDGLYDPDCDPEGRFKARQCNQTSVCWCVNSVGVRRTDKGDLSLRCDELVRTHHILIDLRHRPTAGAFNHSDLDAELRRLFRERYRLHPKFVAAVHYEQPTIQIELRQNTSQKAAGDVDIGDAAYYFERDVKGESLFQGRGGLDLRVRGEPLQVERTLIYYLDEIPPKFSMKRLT

[8] = molecular target: T1, human TROP2 (purified recombinant …); assay: as above; remark: listed apart in the source

binding result [1]: binds
B6: 589-VH_1 + 589-VL_1 (antibody, V domains shown)
VH: QVQLLESGGGLVKPGGSLRLSCAASGFTFSDYDMFWIRQAPGKGLEWVSVINRSGSYTNYAPAVKGRFTISRDNAKNSLYLQMNSLRAEDTAVYYCARGACTHCWDADSAGYIDAWGQGTLVTVSS
VL: SYELTQPPSVSVSPGQTASITCSGSSGSYGWYQQKPGQSPVLVIYSSDKRPSGIPERFSGSNSGNTATLTISGTQAMDEADYYCGGYDGSTDVGIFGGGTKLTVL

binding result [1]: binds
B7: 589-VH_3 + 589-VL_1 (antibody, V domains shown)
VH: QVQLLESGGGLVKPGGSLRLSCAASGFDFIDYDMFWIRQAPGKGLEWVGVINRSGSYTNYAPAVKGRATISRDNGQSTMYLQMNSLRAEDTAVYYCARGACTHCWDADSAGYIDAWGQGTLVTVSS
VL: SYELTQPPSVSVSPGQTASITCSGSSGSYGWYQQKPGQSPVLVIYSSDKRPSGIPERFSGSNSGNTATLTISGTQAMDEADYYCGGYDGSTDVGIFGGGTKLTVL

binding result [1]: binds
B8: 589-VH_3 + 589-VL_4 (antibody, V domains shown)
VH: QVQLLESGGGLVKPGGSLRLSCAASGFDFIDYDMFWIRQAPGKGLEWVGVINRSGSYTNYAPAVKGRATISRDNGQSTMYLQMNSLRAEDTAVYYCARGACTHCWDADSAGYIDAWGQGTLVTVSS
VL: ALALTQPSSVSANPGGTVKITCSGSSGSYGWHQQKSPGSAPVTVIYSSDKRPSDIPSRFSGALSGSTATLTITGVRAEDEAVYYCGGYDGSTDVGIFGAGTTLTVL

binding result [1]: binds
B9: 589-VH_5 + 589-VL_2 (antibody, V domains shown)
VH: AVTLDESGGGLQTPGGGLSLVCKASGFDFIDYDMFWVRQAPGKGLEWVGVINRSGSYTNYAPAVKGRATISRDNGQSTMRLQLNNLRAEDTGTYYCARGACTHCWDADSAGYIDAWGHGTEVIVSS
VL: SLELTQPPSVSVSPGQTASITCSGSSGSYGWHQQKPGQSPVTVIYSSDKRPSGIPERFSGSSSGSTATLTISGTQAMDEADYYCGGYDGSTDVGIFGGGTKLTVL
notes: parental VH with humanized VL

binding result [1]: binds
B10: 589-VH_1 + 589-VL_4 (antibody, V domains shown)
VH: QVQLLESGGGLVKPGGSLRLSCAASGFTFSDYDMFWIRQAPGKGLEWVSVINRSGSYTNYAPAVKGRFTISRDNAKNSLYLQMNSLRAEDTAVYYCARGACTHCWDADSAGYIDAWGQGTLVTVSS
VL: ALALTQPSSVSANPGGTVKITCSGSSGSYGWHQQKSPGSAPVTVIYSSDKRPSDIPSRFSGALSGSTATLTITGVRAEDEAVYYCGGYDGSTDVGIFGAGTTLTVL

binding result [1]: binds
B11: 589-VH_1 + 589-VL_2 (antibody, V domains shown)
VH: QVQLLESGGGLVKPGGSLRLSCAASGFTFSDYDMFWIRQAPGKGLEWVSVINRSGSYTNYAPAVKGRFTISRDNAKNSLYLQMNSLRAEDTAVYYCARGACTHCWDADSAGYIDAWGQGTLVTVSS
VL: SLELTQPPSVSVSPGQTASITCSGSSGSYGWHQQKPGQSPVTVIYSSDKRPSGIPERFSGSSSGSTATLTISGTQAMDEADYYCGGYDGSTDVGIFGGGTKLTVL

Continued, binder first:

B1: 589-VH_2 + 589-VL_1 (antibody, V domains shown)
VH: QVQLLESGGGLVKPGGSLRLSCAASGFDFIDYDMFWIRQAPGKGLEWVGVINRSGSYTNYAPAVKGRATISRDNAKNSMYLQMNSLRAEDTAVYYCARGACTHCWDADSAGYIDAWGQGTLVTVSS
VL: SYELTQPPSVSVSPGQTASITCSGSSGSYGWYQQKPGQSPVLVIYSSDKRPSGIPERFSGSNSGNTATLTISGTQAMDEADYYCGGYDGSTDVGIFGGGTKLTVL
binding result [1]: binds

B2: 589-VH_5 + 589-VL_1 (antibody, V domains shown)
VH: AVTLDESGGGLQTPGGGLSLVCKASGFDFIDYDMFWVRQAPGKGLEWVGVINRSGSYTNYAPAVKGRATISRDNGQSTMRLQLNNLRAEDTGTYYCARGACTHCWDADSAGYIDAWGHGTEVIVSS
VL: SYELTQPPSVSVSPGQTASITCSGSSGSYGWYQQKPGQSPVLVIYSSDKRPSGIPERFSGSNSGNTATLTISGTQAMDEADYYCGGYDGSTDVGIFGGGTKLTVL
notes: parental VH with humanized VL
binding result [1]: binds

B3: 589-VH_2 + 589-VL_4 (antibody, V domains shown)
VH: QVQLLESGGGLVKPGGSLRLSCAASGFDFIDYDMFWIRQAPGKGLEWVGVINRSGSYTNYAPAVKGRATISRDNAKNSMYLQMNSLRAEDTAVYYCARGACTHCWDADSAGYIDAWGQGTLVTVSS
VL: ALALTQPSSVSANPGGTVKITCSGSSGSYGWHQQKSPGSAPVTVIYSSDKRPSDIPSRFSGALSGSTATLTITGVRAEDEAVYYCGGYDGSTDVGIFGAGTTLTVL
binding result [1]: binds

B4: 589-VH_3 + 589-VL_2 (antibody, V domains shown)
VH: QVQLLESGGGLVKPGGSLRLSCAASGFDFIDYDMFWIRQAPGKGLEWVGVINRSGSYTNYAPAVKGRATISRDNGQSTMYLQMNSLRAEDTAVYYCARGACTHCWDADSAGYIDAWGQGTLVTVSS
VL: SLELTQPPSVSVSPGQTASITCSGSSGSYGWHQQKPGQSPVTVIYSSDKRPSGIPERFSGSSSGSTATLTISGTQAMDEADYYCGGYDGSTDVGIFGGGTKLTVL
binding result [1]: binds

B5: 589-VH_2 + 589-VL_2 (antibody, V domains shown)
VH: QVQLLESGGGLVKPGGSLRLSCAASGFDFIDYDMFWIRQAPGKGLEWVGVINRSGSYTNYAPAVKGRATISRDNAKNSMYLQMNSLRAEDTAVYYCARGACTHCWDADSAGYIDAWGQGTLVTVSS
VL: SLELTQPPSVSVSPGQTASITCSGSSGSYGWHQQKPGQSPVTVIYSSDKRPSGIPERFSGSSSGSTATLTISGTQAMDEADYYCGGYDGSTDVGIFGGGTKLTVL
notes: also called SD-861408
binding result [1]: binds

B12: SD-394517 (antibody, V domains shown)
VH: AVTLDESGGGLQTPGGALSLVCKGSGFTFSSYAMGWVRQAPGKGLEYVAAISSGSSTGYGAAVKGRATISRDTGQSTVRLQLNNLRAEDTATYYCAKSGYGGSASYVSDIDAWGHGTEVIVSS
VL: ALALTQPSSVSANPGETVEITCSGGGDYYGTYYYGWYQQKAPGSAPVTVIYDNTKRPSNIPSRFSGSTSGSTNTLTITGVQADDEAVYYCGSYDSSAGIFGAGTTLTVL
notes: Chicken/human chimera
Kd [2]: 0.76 nM | koff [2]: 0.000303 s⁻¹ | kon [2]: 396000 M⁻¹ s⁻¹ | EC50 [3]: 2.04 nM | Fold difference in affinity (huTROP2:msTROP2) [4]: 1.5 fold | binding result [5]: no binding (tested: 1 µM top concentration) | Kd [6]: 1.18 nM | Kd [7]: 0.92 nM | Kd [8]: 0.76 nM

B13: SD-457798 (antibody, V domains shown)
VH: AVTLDESGGGLQTPGGALSLVCKGSGFTFSSYAMGWVRQAPGKGLEYVAAISSGSSTGYGAAVKGRATISKDTGQSTVRLQLNNLRAEDTATYYCAKSGYGGSASYVSDIDAWGHGTEVIVSS
VL: ALALTQPSSVSANPGETVEITCSGGGDYYGTYYYGWYQQKAPGSAPVTVIYDNTKRPSNIPSRFSGSTSGSTNTLTITGVQADDEAIYFCGSYKSNTFGAGTTLTVL
notes: Chicken/human chimera
Kd [2]: 0.64 nM | koff [2]: 0.000259 s⁻¹ | kon [2]: 403000 M⁻¹ s⁻¹ | EC50 [3]: 1.06 nM | Fold difference in affinity (huTROP2:msTROP2) [4]: 0.5 fold | binding result [5]: no binding (tested: 1 µM top concentration) | Kd [6]: 0.34 nM | Kd [7]: 0.96 nM | Kd [8]: 0.64 nM
